The target of series [1] is T1, Nucleolin (cell-surface, C6 rat glioma cells) (UniProt P13383 P13383:1-713). In words: C6 cell fluorescence, 20 nM; confirmed by confocal. The conditions noted are these: tags: endogenous on C6 cells (ATCC); label: 5'-Cy3; G4. As to the method:
(§1) To determine the targeting efficiency of the cancers, fluorescence intensities of forty-seven Cy3-labeled BzdU-containing GRO29A and eighteen Cy3-labeled NapdU-containing GRO29A compounds were quantified to evaluate their targeting efficiency at C6 cells by the Varioskan Flash spectral scanning multimode reader (Thermo Fisher Scientific Inc. Waltham, Mass.; excitation: 535 nm, scanning wavelength: 570 nm with a band width: 12 nm). C6 cells were seeded 1×10⁵ cell density onto Magne to FACTION 24 plate (Chemicell, GmbH, Germany) and caring at a 5% CO₂-humidified chamber. After 24 hours of grown, these seeded cells were incubated in DMEM (Dubelocos' modified essential media) with 20 nM of Cy3-labeled GRO29A or AS1411, or 20 nM of each of the Cy3-labeled modified dU-containing GRO29A or AS1411 compounds at for 30 minute at 4° C. for decreasing non-specific binding during 30 min and rinsed by PBS (1×), then replaced to 200 μl Tris buffer, and then treated with each of 47 different compounds (20 pmole). […] These cells were collected by PBS (1×) (120 μl) and transferred into 96-well plate (Chemicell, GmbH, Germany) for measurement of fluorescence intensity (100 μl). […]

For series [2], the target named is T2, Nucleolin (cell-surface, human cancer cell lines) (UniProt P19338 P19338:2-710). In words: HeLa cell fluorescence. The conditions noted are these: tags: endogenous on HeLa, MDA-MB231, HepG2, AGS, OVCAR-3, U87MG cells (ATCC); label: 5'-Cy3; G4. As to the method: (§2) To determine the targeting efficiency of the cancers, fluorescence intensities of forty-seven Cy3-labeled BzdU-containing GRO29A and eighteen Cy3-labeled NapdU-containing GRO29A compounds were quantified to evaluate their targeting efficiency at C6 cells by the Varioskan Flash spectral scanning multimode reader (Thermo Fisher Scientific Inc. Waltham, Mass.; excitation: 535 nm, scanning wavelength: 570 nm with a band width: 12 nm). C6 cells were seeded 1×10⁵ cell density onto Magne to FACTION 24 plate (Chemicell, GmbH, Germany) and caring at a 5% CO₂-humidified chamber. […] These cells were collected by PBS (1×) (120 μl) and transferred into 96-well plate (Chemicell, GmbH, Germany) for measurement of fluorescence intensity (100 μl).
(§3) To test functional activity of BzdU-containing GRO29A, the compounds numbers 1642-39, 1642-51 and 1642-19, in other cancer cells, the inventors first extended cancer targeting assay by selecting another cancer cells, HeLa (human cervix cancer cell line, ATCC), and a normal healthy cell line, CHO (chinese hamster ovary cell line, ATCC). The measurement of fluorescence intensity was performed as described above for C6 cells.

The target of series [3] is T1, Nucleolin (cell-surface, C6 rat glioma …). In words: C6 cell fluorescence, about 1.5 fold or more, 20 nM. The conditions noted are these: tags: endogenous on C6 cells (ATCC); label: 5'-Cy3; G4. As to the method: To determine the targeting efficiency of the cancers, fluorescence intensities of forty-seven Cy3-labeled BzdU-containing GRO29A and eighteen Cy3-labeled NapdU-containing GRO29A compounds were quantified to evaluate their targeting efficiency at C6 cells by the Varioskan Flash spectral scanning multimode reader (Thermo Fisher Scientific Inc. Waltham, Mass.; excitation: 535 nm, scanning wavelength: 570 nm with a band width: 12 nm). C6 cells were seeded 1×10⁵ cell density onto Magne to FACTION 24 plate (Chemicell, GmbH, Germany) and caring at a 5% CO₂-humidified chamber. After 24 hours of grown, these seeded cells were incubated in DMEM (Dubelocos' modified essential media) with 20 nM of Cy3-labeled GRO29A or AS1411, or 20 nM of each of the Cy3-labeled modified dU-containing GRO29A or AS1411 compounds at for 30 minute at 4° C. for decreasing non-specific binding during 30 min and rinsed by PBS (1×), then replaced to 200 μl Tris buffer, and then treated with each of 47 different compounds (20 pmole). Then, seeded cells was washed with PBS (phosphate buffered saline) two times each for 10 min at RT using shaking incubation (30 rpm) to remove the unbound Cy3-labeled modified dU-containing GRO29A or AS1411 compounds, and subjected to trypsinization to detach from the plate surface. These cells were collected by PBS (1×) (120 μl) and transferred into 96-well plate (Chemicell, GmbH, Germany) for measurement of fluorescence intensity (100 μl).

For series [4] the target is unchanged. Description: C6 cell fluorescence, about 1.5 fold or more, 20 nM; confirmed by confocal. The conditions noted are these: tags: endogenous on C6 cells (ATCC); label: 5'-Cy3; G4. As for the experimental part: as §1
Series [5] addresses T2, Nucleolin (cell-surface, human cancer …). Description: HeLa cell fluorescence; reference. The conditions noted are these: tags: endogenous on HeLa, MDA-MB231, HepG2, AGS, OVCAR-3, U87MG cells (ATCC); label: 5'-Cy3; G4. As for the experimental part:
as §2, §3

For series [6], the target named is T1, Nucleolin (cell-surface, C6 rat glioma …). In words: cell fluorescence and confocal on C6 cells, 20 nM, 4 C; reference. The conditions noted are these: tags: endogenous on C6 cells (ATCC); label: 5'-Cy3; G4. As to the method: as §1

Bounds are passed on as bounds.

T1 sequence (P13383 whole entry, one chain of several): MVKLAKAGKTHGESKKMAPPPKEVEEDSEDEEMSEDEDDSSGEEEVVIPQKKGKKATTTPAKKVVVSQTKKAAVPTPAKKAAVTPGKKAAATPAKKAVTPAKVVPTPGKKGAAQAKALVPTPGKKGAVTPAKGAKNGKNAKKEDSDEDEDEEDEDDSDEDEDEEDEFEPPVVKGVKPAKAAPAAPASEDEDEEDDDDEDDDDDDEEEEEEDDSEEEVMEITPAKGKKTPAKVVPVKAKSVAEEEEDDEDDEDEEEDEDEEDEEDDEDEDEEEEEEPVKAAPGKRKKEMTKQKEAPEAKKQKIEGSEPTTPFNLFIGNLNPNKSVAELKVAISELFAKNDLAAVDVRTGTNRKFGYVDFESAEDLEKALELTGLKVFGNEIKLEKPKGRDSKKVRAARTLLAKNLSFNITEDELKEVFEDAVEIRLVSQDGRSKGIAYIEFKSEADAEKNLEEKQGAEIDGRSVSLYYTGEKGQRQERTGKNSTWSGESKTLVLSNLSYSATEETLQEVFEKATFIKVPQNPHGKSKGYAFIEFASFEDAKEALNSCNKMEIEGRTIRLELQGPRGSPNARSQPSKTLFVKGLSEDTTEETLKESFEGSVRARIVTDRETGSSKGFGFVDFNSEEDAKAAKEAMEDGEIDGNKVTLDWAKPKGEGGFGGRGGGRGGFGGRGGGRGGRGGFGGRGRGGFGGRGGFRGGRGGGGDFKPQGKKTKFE
T2 sequence (P19338 2-710, one chain of several): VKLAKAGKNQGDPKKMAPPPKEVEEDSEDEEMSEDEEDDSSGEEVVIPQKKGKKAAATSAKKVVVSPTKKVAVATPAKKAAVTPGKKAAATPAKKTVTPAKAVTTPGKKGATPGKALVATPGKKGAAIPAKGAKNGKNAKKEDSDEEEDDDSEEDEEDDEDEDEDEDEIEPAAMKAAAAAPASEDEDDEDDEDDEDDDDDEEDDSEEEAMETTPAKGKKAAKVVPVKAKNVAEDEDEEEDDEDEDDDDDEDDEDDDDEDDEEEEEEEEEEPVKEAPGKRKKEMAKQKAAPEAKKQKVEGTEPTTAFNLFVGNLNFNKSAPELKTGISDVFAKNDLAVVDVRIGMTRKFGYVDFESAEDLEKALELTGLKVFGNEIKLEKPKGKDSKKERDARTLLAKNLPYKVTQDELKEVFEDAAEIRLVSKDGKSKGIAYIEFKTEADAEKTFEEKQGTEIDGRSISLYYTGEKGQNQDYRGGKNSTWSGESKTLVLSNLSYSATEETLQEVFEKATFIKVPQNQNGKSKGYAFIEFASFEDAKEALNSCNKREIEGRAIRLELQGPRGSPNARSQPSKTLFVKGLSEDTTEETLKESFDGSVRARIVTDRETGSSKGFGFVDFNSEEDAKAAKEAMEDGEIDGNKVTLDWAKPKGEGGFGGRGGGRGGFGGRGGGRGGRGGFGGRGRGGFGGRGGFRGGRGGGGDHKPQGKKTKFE

B1: 1642-19 (ssDNA)
DNA: TTTGGTGGTGGTGGTTGTGGTGGTGGTGG
modifications: BzdU at T27
B1: the values for the binding signal in series [1] and in series [2] were approximately 2.5 fold vs GRO29A and approximately 2.3 fold vs GRO29A, respectively.

B2: 1642-30 (ssDNA)
DNA: TTTGGTGGTGGTGGTTGTGGTGGTGGTGG
modifications: BzdU at T9, T27
B2: the binding signal in series [3] was not below 1.5 fold vs GRO29A.

B3: 1642-13 (ssDNA)
DNA: TTTGGTGGTGGTGGTTGTGGTGGTGGTGG
modifications: BzdU at T12
Molecule B3 registered a binding signal in series [3] not below 1.5 fold vs GRO29A.

B4: 1642-39 (ssDNA)
DNA: TTTGGTGGTGGTGGTTGTGGTGGTGGTGG
modifications: BzdU at T15, T16
For B4, the binding signal in series [4] is not below 1.5 fold vs GRO29A.

B5: 1642-51 (ssDNA)
DNA: TTTGGTGGTGGTGGTTGTGGTGGTGGTGG
modifications: BzdU at T1, T3, T15, T16
On to B5, for which, in series [4], the binding signal was not below 1.5 fold vs GRO29A.

B6: GRO29A (Cy3-1641-3) (ssDNA)
DNA: TTTGGTGGTGGTGGTTGTGGTGGTGGTGG
With B6, the binding signal in series [5] and in series [6] was 1 fold each time.

B7: 1642-49 (ssDNA)
DNA: TTTGGTGGTGGTGGTTGTGGTGGTGGTGG
modifications: BzdU at T2, T3, T15, T16
In series [3], B7 registered a binding signal not below 1.5 fold vs GRO29A.

B8: 1642-11 (ssDNA)
DNA: TTTGGTGGTGGTGGTTGTGGTGGTGGTGG
modifications: BzdU at T6
Turning to B8, in series [3], the binding signal is not below 1.5 fold vs GRO29A.

For the origin of these results see patent publication US20100317723, “Nucleolin Specific Aptamer and Use thereof” (POSTECH ACADEMY-INDUSTRY FOUDATION, published 2010).
